The conditions of the series: Escherichia coli (strain K12), Thermal, CD, NaCl 0.1 M, reversible: yes, whole UniProt chain shown.

B1: Ribonuclease HI wild type, P0A7Y4 (protein)
chain: MLKQVEIFTDGSCLGNPGPGGYGAILRYRGREKTFSAGYTRTTNNRMELMAAIVALEALKEHCEVILSTDSQYVRQGITQWIHNWKKRGWKTADKKPVKNVDLWQRLDAALGQHQIKWEWVKGHAGHPENERCDELARAAAMNPTLEDTGYQVEV
Consider B1, for which the melting temperature (Tm) turned out to be 49.8 °C (pH 3, glycine-HCl 10 mM) and 52 °C (pH 5.5, Sodium acetate 20 mM).

As usually defined, the Tm is the temperature at which the thermal transition is half complete.

For the origin of these results see FireProtDB (doi:10.1021/bi00416a052).
